In publication PMC9913075:

Molecular target: Taspase1, endogenous in HeLa cells (human (endogenous in HeLa)) (UniProt Q9H6P5)
Test: proximity ligation; Duolink PLA on fixed HeLa cells with rabbit anti-Topoisomerase IIα/β and mouse anti-Taspase1; foci per nucleus counted

Chain of UniProt Q9H6P5 (Q9H6P5 whole entry): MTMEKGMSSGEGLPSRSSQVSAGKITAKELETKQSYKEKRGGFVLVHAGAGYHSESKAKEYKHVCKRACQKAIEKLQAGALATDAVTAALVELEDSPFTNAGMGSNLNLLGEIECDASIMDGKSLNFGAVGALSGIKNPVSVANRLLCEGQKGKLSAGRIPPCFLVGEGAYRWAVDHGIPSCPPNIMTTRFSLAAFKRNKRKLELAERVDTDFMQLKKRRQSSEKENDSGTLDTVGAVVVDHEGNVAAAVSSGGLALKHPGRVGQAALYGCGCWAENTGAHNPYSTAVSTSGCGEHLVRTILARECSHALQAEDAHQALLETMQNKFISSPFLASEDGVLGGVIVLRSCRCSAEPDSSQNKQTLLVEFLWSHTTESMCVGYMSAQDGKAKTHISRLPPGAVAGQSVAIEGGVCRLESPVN

Work on “Topo IIα/β (endogenous, HeLa cells, detected with an antibody that recognises both isoforms)” yielded a PLA foci per nucleus (median) (foci per nucleus) of 45.
